Target: T1, full-length hMLH1 protein (human, UniProt P40692 1-756, 35S-labelled methionine where labelled)
T1 construct: Called full-length
T1 sequence (looked up): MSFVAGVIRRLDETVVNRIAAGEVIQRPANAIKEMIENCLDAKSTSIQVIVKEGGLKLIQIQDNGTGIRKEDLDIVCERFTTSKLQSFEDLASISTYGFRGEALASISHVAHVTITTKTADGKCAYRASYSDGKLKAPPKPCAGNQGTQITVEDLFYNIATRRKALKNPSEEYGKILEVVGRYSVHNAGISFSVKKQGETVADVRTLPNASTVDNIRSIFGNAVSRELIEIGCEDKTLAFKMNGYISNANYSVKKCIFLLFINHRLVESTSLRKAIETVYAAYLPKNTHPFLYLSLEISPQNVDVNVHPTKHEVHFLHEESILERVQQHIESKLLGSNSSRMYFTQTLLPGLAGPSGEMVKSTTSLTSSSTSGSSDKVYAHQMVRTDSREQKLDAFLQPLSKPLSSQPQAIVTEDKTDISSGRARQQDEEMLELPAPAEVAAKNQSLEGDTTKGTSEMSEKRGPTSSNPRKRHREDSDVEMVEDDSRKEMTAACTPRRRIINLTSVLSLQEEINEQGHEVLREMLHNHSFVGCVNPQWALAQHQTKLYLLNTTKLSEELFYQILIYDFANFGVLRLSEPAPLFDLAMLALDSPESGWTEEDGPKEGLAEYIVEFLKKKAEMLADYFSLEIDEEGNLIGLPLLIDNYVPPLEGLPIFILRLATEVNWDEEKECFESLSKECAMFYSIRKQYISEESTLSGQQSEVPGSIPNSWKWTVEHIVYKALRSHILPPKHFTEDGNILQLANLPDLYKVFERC
Assay: co-immunoprecipitation of in vitro translated proteins with anti-hMLH1 mAb (FIG. 5B, lane 1); converse with N-terminal hPMS2 antibody (FIG. 5C, lane 2)
Experimental: Immunoprecipitation, Immunoprecipitations were performed on in vitro translated proteins by mixing the translation reactions with 1 μg of the MLH1 specific monoclonal antibody (mAB) MLH14 (Oncogene Science, Inc.), a polyclonal antibody generated to codons 2-20 of hPMS2 described above, or a polyclonal antibody generated to codons 843-862 of hPMS2 (Santa Cruz Biotechnology, Inc.) in 400 µl of EBC buffer (50 mM Tris, pH 7.5, 0.1 M NaCl, 0.5% NP40). After incubation for 1 hr at 4° C., protein A sepharose (Sigma) was added to a final concentration of 10% and reactions were incubated at 4° C. for 1 hour. Proteins bound to protein A were washed five times in EBC and separated by electrophoresis on 4-20% Tris-glycine gels, which were then dried and autoradiographed.
Previous studies have shown that these two proteins dimerize to form a functionally active complex (12, 28). Proteins were synthesized in vitro using reticulocyte lysates, employing RNA generated from cloned templates. The full-length hMLH1 and hPMS2 proteins bound to each other and were co-precipitated with antibodies to either protein, as expected (data not shown). […] When a ^35S-labelled, full length hMLH1 protein (FIG. 5A, lane 5) was mixed with the unlabelled carboxyl terminal hPMS2 polypeptide, a monoclonal antibody (mAb) to the carboxyl terminus of hPMS2 efficiently immunoprecipitated the labeled hMLH1 protein (lane 1). […]

- binding result: no binding
B1: hPMS-134 (containing codons 1-134 of hPMS2), in vitro translated (other, human, UniProt P54278 1-134, looked up)
chain: MERAESSSTEPAKAIKPIDRKSVHQICSGQVVLSLSTAVKELVENSLDAGATNIDLKLKDYGVDLIEVSDNGCGVEEENFEGLTLKHHTSKIQEFADLTQVETFGFRGEALSSLCALSDVTISTCHASAKVGTR
modifications: 35S-labelled methionine
notes: The patient allele expressed in cells is said to give the N-terminal 133 amino acids

Reference: US7297837 (Johns Hopkins, dated 2007)
